This passage reports Kd and koff results from patent publication US20220324934A1 (Stanford University, published 2022).

Broadly, the Kd is a measure of binding affinity in units of concentration. A high value points to lower affinity. One may read the koff as the rate constant with which the complex falls apart. Low readings indicate slow dissociation, high ones fast dissociation.

Assay [1] has as its target T1, IL-2Rβ (UniProt P14784 27-240, limits assumed, biotinylated (site not stated)).
T1 construct: also called CD122; IL-2Rbeta
T1 sequence (looked up): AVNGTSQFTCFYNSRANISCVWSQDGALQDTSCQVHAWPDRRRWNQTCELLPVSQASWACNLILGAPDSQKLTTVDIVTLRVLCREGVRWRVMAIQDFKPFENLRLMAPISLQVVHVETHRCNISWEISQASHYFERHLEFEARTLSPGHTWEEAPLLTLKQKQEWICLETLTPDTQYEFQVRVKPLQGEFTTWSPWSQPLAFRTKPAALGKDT
Put plainly: SPR Biacore T100, kinetic fit; biotinylated IL-2Rβ on chip. The method, then: (§1) To perform the surface plasmon resonance (SPR) analysis, the test variant protein was made in Expi293 as described previously. […] Experiments were performed on a BlAcore® T100 (GE Healthcare, Piscataway, N.J.).
Background: SPR reads the build-up and loss of mass on a sensor chip optically.

Assay [2] concerns the target T1, IL-2Rβ. The assay can be described thus: SPR Biacore T100, steady-state; biotinylated IL-2Rβ on chip. The method, then: as §1

B1: Super-2 (H9) IL-2 variant, expressed as MSA fusion protein (ligand, not shown: large carriers; small tags and cut ends)
chain: APTSSSTKKTQLQLEHLLLDLQMILNGINNYKNPKLTRMLTFKFYMPKKATELKHLQCLEEELKPLEEVLNLAQSKNFHFDPRDVVSNINVFVLELKGSETTFMCEYADETATIVEFLNRWITFCQSIISTLT
notes: also called H9 super-2; MSA-H9-super-2
Turning to B1, in the assay with IL-2Rβ [1], the equilibrium dissociation constant (Kd) turned out to be 0.0021 µM and the dissociation rate constant (koff) worked out at 0.0015 s⁻¹. Besides, the equilibrium dissociation constant (Kd) with IL-2Rβ [2] was 0.0162 µM.

B2: in silico designed IL-2 variant SEQ ID NO: 15, MSA fusion protein (ligand, not shown: large carriers; small tags and cut ends)
chain: APTSSSTKKTQLQLEHLLLDLQMILNMLNNYDNPKLTRMLTFKFYMPKKATELKHLQCLEEELKPLEEALNQAQSKNFHLDPRDLISNINVIVLELKGSETTFMCEYADETATIIEFLNRWITFCQSIISTLT
B2: in the assay with IL-2Rβ [1], the equilibrium dissociation constant (Kd) turned out to be 0.227 µM and the dissociation rate constant (koff) amounted to 0.064 s⁻¹. In the assay with IL-2Rβ [2], this molecule came in with a Kd of 0.498 µM.

B3: in silico designed IL-2 variant SEQ ID NO: 17, MSA fusion protein (ligand, not shown: large carriers; small tags and cut ends)
chain: APTSSSTKKTQLQLEHLLLDLQMILNMLNNYDNPKLTRLLTFKFYMPKKATSLKHLQCLEEELKPLEEALNLAQSKNFHLDPRDLISNINVIVLELKGSETTFMCEYADETATIIEFLNRWITFCQSIISTLT
Turning to B3, in the assay with IL-2Rβ [1], the dissociation constant Kd came out at 0.241 µM and the koff was 0.091 s⁻¹. For the same molecule, the affinity in the assay with IL-2Rβ [2], expressed as Kd, was 0.268 µM.

B4: in silico designed IL-2 variant SEQ ID NO: 16, MSA fusion protein (ligand, not shown: large carriers; small tags and cut ends)
chain: APTSSSTKKTQLQLEHLLLDLQMILNMLNNYDNPKLTRLLTFKFYMPKKATSLKHLQCLEEELKPLEEALNQAQSKNFHLDPRDLISNINVIVLELKGSETTFMCEYADETATIIEFLNRWITFCQSIISTLT
In the assay with IL-2Rβ [1], B4 registered a dissociation constant Kd of 0.221 µM and an off-rate constant (koff) of 0.071 s⁻¹. The molecule also registered a Kd with IL-2Rβ [2] of 0.29 µM.

B5: in silico designed IL-2 variant SEQ ID NO: 14, MSA fusion protein (ligand, not shown: large carriers; small tags and cut ends)
chain: APTSSSTKKTQLQLEHLLLDLQMILNMLNNYDNPKLTRMLTFKFYMPKKATELKHLQCLEEELKPLEEALNLAQSKNFHLDPRDLISNINVIVLELKGSETTFMCEYADETATIIEFLNRWITFCQSIISTLT
On to B5, for which, in the assay with IL-2Rβ [1], binding was characterised by a dissociation constant (Kd) of 0.171 µM and the koff was 0.072 s⁻¹. In the assay with IL-2Rβ [2], this molecule gave a Kd of 0.196 µM.

B6: in silico designed IL-2 variant SEQ ID NO: 4, MSA fusion protein (ligand, not shown: large carriers; small tags and cut ends)
chain: APTSSSTKKTQLQLEHLLLDLQMILNMLNNYDNPKLTRLLTFKFYMPKKATSLKHLQCLEEELKPLEEALNQAGDDPKTIRDLISNINVIVLELKGSETTFMCEYADETATIIEFLNRWITFCQSIISTLT
With B6, in the assay with IL-2Rβ [1], the Kd was 0.339 µM and the off-rate (koff) was found to be 0.05 s⁻¹. In the assay with IL-2Rβ [2], this molecule registered an equilibrium dissociation constant (Kd) of 0.389 µM.

B7: in silico designed IL-2 variant SEQ ID NO: 7, MSA fusion protein (ligand, not shown: large carriers; small tags and cut ends)
chain: APTSSSTKKTQLQLEHLLLDLQMILNMLNNYDNPKLTRMLTFKFYMPKKATELKHLQCLEEELKPLEEALNQADSTDETVRDLISNINVIVLELKGSETTFMCEYADETATIIEFLNRWITFCQSIISTLT
B7: in the assay with IL-2Rβ [1], binding was characterised by a dissociation constant (Kd) of 0.0567 µM and the off-rate constant (koff) came out at 0.0026 s⁻¹. For the same molecule, the Kd in the assay with IL-2Rβ [2] amounted to 0.0854 µM.

B8: in silico designed IL-2 variant SEQ ID NO: 9, MSA fusion protein (ligand, not shown: large carriers; small tags and cut ends)
chain: APTSSSTKKTQLQLEHLLLDLQMILNMLNNYDNPKLTRLLTFKFYMPKKATSLKHLQCLEEELKPLEEALNQADSTDSRIRDLISNINVIVLELKGSETTFMCEYADETATIIEFLNRWITFCQSIISTLT
As for B8, in the assay with IL-2Rβ [1], binding was characterised by a dissociation constant (Kd) of 0.33 µM and the koff amounted to 0.12 s⁻¹. Further, the dissociation constant Kd in the assay with IL-2Rβ [2] amounted to 0.378 µM.

B9: in silico designed IL-2 variant SEQ ID NO: 13, MSA fusion protein (ligand, not shown: large carriers; small tags and cut ends)
chain: APTSSSTKKTQLQLEHLLLDLQMILNMLNNASNPSLTRMLTFKFYMPKKATELKHLQCLEEELKPLEEALNTAADDQDKIRDLISNINVIVLELKGSETTFMCEYADETATIIEFLNRWITFCQSIISTLT
Take B9: in the assay with IL-2Rβ [1], the Kd was 0.174 µM and the off-rate (koff) came to 0.036 s⁻¹. The same molecule registered a Kd with IL-2Rβ [2] of 0.207 µM.

B10: in silico designed IL-2 variant SEQ ID NO: 5, MSA fusion protein (ligand, not shown: large carriers; small tags and cut ends)
chain: APTSSSTKKTQLQLEHLLLDLQMILNMLNNYDNPKLTRLLTFKFYMPKKATSLKHLQCLEEELKPLEEALNDAGDDPKTIRDLISNINVIVLELKGSETTFMCEYADETATIIEFLNRWITFCQSIISTLT
In the assay with IL-2Rβ [1], B10 showed a Kd of 0.292 µM and a koff of 0.047 s⁻¹. In addition, binding in the assay with IL-2Rβ [2] was characterised by a dissociation constant (Kd) of 0.362 µM.

B11: in silico designed IL-2 variant SEQ ID NO: 10, MSA fusion protein (ligand)
chain: APTSSSTKKTQLQLEHLLLDLQMILNMLNNYDNPKLTRLLTFKFYMPKKATSLKHLQCLEEELKPLEEALNQASKDQKKVRDVVSNINVFVLELKGSETTFMCEYADETATIIEFLNRWITFCQSIISTLT
notes: not shown: mouse serum albumin (MSA), fusion partner
Take B11: in the assay with IL-2Rβ [1], binding was put at a Kd of 0.105 µM and the dissociation rate constant (koff) was found to be 0.015 s⁻¹. Besides, binding with IL-2Rβ [2] was characterised by a dissociation constant (Kd) of 0.137 µM.

B12: in silico designed IL-2 variant SEQ ID NO: 8, MSA fusion protein (ligand, not shown: large carriers; small tags and cut ends)
chain: APTSSSTKKTQLQLEHLLLDLQMILNMLNNYDNPKLTRLLTFKFYMPKKATSLKHLQCLEEELKPLEEALNAADSTDERIRDVVSNINVFVLELKGSETTFMCEYADETATIIEFLNRWITFCQSIISTLT
In the assay with IL-2Rβ [1], B12 had a Kd of 0.0059 µM and an off-rate (koff) of 0.0044 s⁻¹. In the assay with IL-2Rβ [2], this molecule returned a Kd of 0.0142 µM.

B13: in silico designed IL-2 variant SEQ ID NO: 3, MSA fusion protein (ligand, not shown: large carriers; small tags and cut ends)
chain: APTSSSTKKTQLQLEHLLLDLQMILNMLNNYDNPKLTRLLTFKFYMPKKATSLKHLQCLEEELKPLEEALNAAGDDPKTIRDLISNINVIVLELKGSETTFMCEYADETATIIEFLNRWITFCQSIISTLT
In the assay with IL-2Rβ [1], B13 had a Kd of 0.282 µM and a koff of 0.042 s⁻¹. For the same molecule, the Kd with IL-2Rβ [2] is 0.366 µM.

B14: in silico designed IL-2 variant SEQ ID NO: 6, MSA fusion protein (ligand, not shown: large carriers; small tags and cut ends)
chain: APTSSSTKKTQLQLEHLLLDLQMILNMLNNYENPKLTRMLTFKFYMPKKATSLKHLQCLEEELKPLEEALNQAGDDPKTIRDLISNINVIVLELKGSETTFMCEYADETATIIEFLNRWITFCQSIISTLT
In the assay with IL-2Rβ [1], B14 returned a Kd of 0.315 µM and a koff of 0.046 s⁻¹. Further, binding with IL-2Rβ [2] was characterised by a dissociation constant (Kd) of 0.398 µM.

B15: in silico designed IL-2 variant SEQ ID NO: 1, MSA fusion protein (ligand, not shown: large carriers; small tags and cut ends)
chain: APTSSSTKKTQLQLEHLLLDLQMILNMLNNYDNPKLTRLLTFKFYMPKKATSLKHLQCLEEELKPLEEALNAAGDDPKTIRDVVSNINVFVLELKGSETTFMCEYADETATIIEFLNRWITFCQSIISTLT
For the molecule B15, the dissociation constant Kd with IL-2Rβ [1] came out at 0.025 µM; in the assay with IL-2Rβ [2], 0.0613 µM. In the assay with IL-2Rβ [1], the dissociation rate constant (koff) turned out to be 0.0066 s⁻¹.

B16: in silico designed IL-2 variant SEQ ID NO: 2, MSA fusion protein (ligand, not shown: large carriers; small tags and cut ends)
chain: APTSSSTKKTQLQLEHLLLDLQMILNMLNNYDNPKLTRLLTFKFYMPKKATELKHLQCLEEELKPLEEALNAAGDDPKTIRDLISNINVIVLELKGSETTFMCEYADETATIIEFLNRWITFCQSIISTLT
Turning to B16, the dissociation constant Kd with IL-2Rβ [1] is 0.332 µM; in the assay with IL-2Rβ [2], 0.411 µM. The same molecule registered a koff with IL-2Rβ [1] of 0.055 s⁻¹.

B17: in silico designed IL-2 variant SEQ ID NO: 12, MSA fusion protein (ligand, not shown: large carriers; small tags and cut ends)
chain: APTSSSTKKTQLQLEHLLLDLQMILNMLNNYDNPKLTRMLTFKFYMPKKATELKHLQCLEEELKPLEEALNHAADDKDTIRDLISNINVIVLELKGSETTFMCEYADETATIIEFLNRWITFCQSIISTLT
Regarding B17, in the assay with IL-2Rβ [1], the Kd was 0.0512 µM and the dissociation rate constant (koff) amounted to 0.023 s⁻¹. In the assay with IL-2Rβ [2], this molecule came in with a dissociation constant Kd of 0.0676 µM.

B18: in silico designed IL-2 variant SEQ ID NO: 11, MSA fusion protein (ligand, not shown: large carriers; small tags and cut ends)
chain: APTSSSTKKTQLQLEHLLLDLQMILNMLNNYSNPKLTRLLTFKFYMPKKATSLKHLQCLEEELKPLEEALNLASDDQDKVRDVVSNINVFVLELKGSETTFMCEYADETATIIEFLNRWITFCQSIISTLT
In the assay with IL-2Rβ [1], B18 came in with a Kd of 0.0087 µM and an off-rate constant (koff) of 0.0036 s⁻¹. The molecule further yielded a Kd in the assay with IL-2Rβ [2] of 0.0227 µM.
